Laboratory results published in US20230012273A1 (Boehringer Ingelheim, published 2023).
Numbering of substitutions follows the chain as printed.

T1: full-length cynomolgus SIRPα (NP_001271679) on CHO cells, clone HC6 (cynomolgus monkey, UniProt A0A2K5VYQ9)
T1 construct: whole, on cells; also called NP_001271679 Clone HC6
T1 sequence: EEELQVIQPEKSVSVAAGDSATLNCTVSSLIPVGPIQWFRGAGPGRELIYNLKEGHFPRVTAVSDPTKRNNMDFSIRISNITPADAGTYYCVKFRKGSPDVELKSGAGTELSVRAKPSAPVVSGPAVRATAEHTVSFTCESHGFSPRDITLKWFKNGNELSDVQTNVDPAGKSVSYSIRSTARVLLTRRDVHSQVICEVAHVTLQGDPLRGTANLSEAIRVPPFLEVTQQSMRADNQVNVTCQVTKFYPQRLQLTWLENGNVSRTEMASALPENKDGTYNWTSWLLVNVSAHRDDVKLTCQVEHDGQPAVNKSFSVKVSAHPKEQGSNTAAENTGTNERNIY

T2: full-length cynomolgus SIRPα (EGM-02252) on CHO cells, clone H3A9 (cynomolgus monkey, UniProt A0A2K5VYQ9)
T2 construct: whole, on cells; also called EGM-02252 Clone H3A9
T2 sequence: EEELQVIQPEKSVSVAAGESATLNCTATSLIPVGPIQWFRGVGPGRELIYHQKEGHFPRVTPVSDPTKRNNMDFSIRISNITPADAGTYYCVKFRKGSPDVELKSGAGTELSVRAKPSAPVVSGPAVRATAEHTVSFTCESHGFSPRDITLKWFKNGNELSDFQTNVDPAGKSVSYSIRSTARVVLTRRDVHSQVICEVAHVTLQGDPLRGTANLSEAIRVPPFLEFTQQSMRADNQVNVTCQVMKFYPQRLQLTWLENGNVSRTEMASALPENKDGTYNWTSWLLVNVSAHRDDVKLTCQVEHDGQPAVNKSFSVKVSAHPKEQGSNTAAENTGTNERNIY

B1: Anti-SIRPα antibody KWAR23 (antibody, V domains shown)
VH: EVQLQQSGAELVKPGASVKLSCTASGFNIKDYYIHWVQQRTEQGLEWIGRIDPEDGETKYAPKFQDKATITADTSSNTAYLHLSSLTSEDTAVYYCARWGAYWGQGTLVTVSS
VL: QIVLTQSPAIMSASPGEKVTLTCSASSSVSSSYLYWYQQKPGSSPKLWIYSTSNLASGVPARFSGSGSGTSYSLTISSMEAEDAASYFCHQWSSYPRTFGAGTKLELK
B2: Antibody B (antibody, human IgG1, kappa, L234A L235A, V domains shown)
VH: QVQLVQSGAEVKKPGASVKVSCKASGYTFTGNYMHWVRQAPGQGLEWMGWINPNSGGTNYAQKFQGRVTMTRDTSISTAYMELSRLRSDDTAVYYCVSGSGWYENYYYYGMDVWGQGTTVTVSS
VL: DIQMTQSPSSVSASVGDRVTITCRASQGISSWLAWYQQKPGKAPKLLIYAESSLQSGVPSRFSGSGSGTDFTLTISSLQPEDFATYYCQQANSFPLTFGGGTKVEIKR
B3: Antibody D (antibody, human IgG1, kappa, L234A L235A, V domains shown)
VH: EVQLVESGGGLVQPGGSLRLSCAASGFTFSSFDMHWVRQPTGKGLEWVSTIGIAGDTYFPGSVKGRFTISRENAKNSLYLQMNSLRAGDTAVYYCARGGNWDDALDIWGQGTMVTVSS
VL: DIQMTQSPSSLSASVGDRVTITCRASQDINNYLAWFQQKPGKAPKSLIYTASSLQSGVPSKFSGSGSGTDFTLTISSLQPEDFATYYCQQYNTYPYTFGQGTKLEIKR
B4: Antibody E (antibody, human IgG1, kappa, L234A L235A)
heavy: not shown
light: DIVMTQSPLSLPVTPGEPASISCKSSQSLLYSNGYNYLDWYLQRPGQSPQLLIYLGSNRASGVPDRFSGSGSGTDFTLKISRVEAEDVGVFYCMQALQTPLTFGGGTKVEIKRTVAAPSVFIFPPSDEQLKSGTASVVCLLNNFYPREAKVQWKVDNALQSGNSQESVTEQDSKDSTYSLSSTLTLSKADYEKHKVYACEVTHQGLSSPVTKSFNRGEC
B5: Antibody C (antibody, human IgG1, kappa, L234A L235A, V domains shown)
VH: B3 VH with F32Y, P40A, T50V, F59Y, A87V, N100S, L105F
VL: B3 VL with V15I, R18K, N92V, T93S
B6: Antibody E22 (antibody, human IgG1, kappa, L234A L235A, V domains shown)
VH: QVQLQESGPGLVKPSETLSLTCTVSGGSIRDYYWSWIRQPPGKGLEWIGFIYYNGRTFYQSSLKSRVTISLDTSKNQFSLKMTSVTAADTAVYYCARVRAYSGIGLDGTDVWGQGTTVTVSS
VL: DIVMTQSPLSLPVTPGEPASISCRSSQSLLYSTGYTYLDWYLQRPGQSPQLLIYGGSSRASGVPDRFSGSGSGTDFTLKISRVEAEDVGVFYCGQALQTPLTFGQGTKVEIKR
B7: Antibody A (antibody, human IgG1, kappa, L234A L235A)
heavy: not shown
light: DIQMTQSPSSLSASVGDRVTITCRASQDINNYLAWFQQKPGKAPKSLIYTASSLHSGVPSKFSGSGSGTDFTLTISSLQPEDFATYYCQQYVSYPYTFGQGTKLEIKRTVAAPSVFIFPPSDEQLKSGTASVVCLLNNFYPREAKVQWKVDNALQSGNSQESVTEQDSKDSTYSLSSTLTLSKADYEKHKVYACEVTHQGLSSPVTKSFNRGEC
B8: Antibody A10 (antibody, human IgG1, kappa, L234A L235A)
heavy: not shown
light: B7 light

biological target: T3, full-length human SIRPαV1 (NP_542970.1) on cells (human, UniProt P78324 31-504); test: flow cytometry, competition with CD47 tetramer, CHO-K1 cells
T3 construct: one molecule for CHO-K1 and Expi-CHO transfectants (NP_542970.1) and for endogenous V1 on U-937 cells and on CD14+ monocytes of V1/V1 donors; also called CHO-hSIRPαV1; αV1 WT
Protocol: Cells are washed, fixed, and analyzed by flow cytometry. Median fluorescent intensity is determined and used as a measure of CD47 binding.

IC50 | Binder
0.9 nM | B1
5.6 nM | B2
0.6 nM | B3
0.7 nM | B4
0.7 nM | B5

biological target: T4, full-length human SIRPβL (NP_001129316.1) on cells (human, UniProt Q5TFQ8 30-398); test: flow cytometry, Expi-CHO cells
T4 construct: one molecule for U937 SIRPα-KO transfectants (NP_001129316.1) and Expi-CHO transfectants (Q5TFQ8); also called SIRPβ1v3; βL WT
In short: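 Lentivirus-transduced Expi-CHO cells expressing wild-type or single point-mutant SIRPβL, sorted to matched expression, blocked with donkey IgG and incubated on ice 60 min with increasing antibody concentrations. Detection with AF647 anti-human IgG F(ab′)₂ after washing and fixation; median fluorescence intensity taken as binding.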

EC50 | Binder
1 nM | B1
1 nM | B4
1.2 nM | B6

biological target: T5, full-length human SIRPαV2 (CAA71403.1) on cells (human, UniProt P78324 31-504); test: flow cytometry, competition with CD47 tetramer, monocytes V2V2
T5 construct: one molecule for CHO-K1 and Expi-CHO transfectants (CAA71403.1) and for endogenous V2 on THP-1 cells and on CD14+ monocytes of V2/V2 donors; also called CHO-hSIRPαV2; αV2 WT
Protocol: Cells are washed, fixed, and analyzed by flow cytometry. Median fluorescent intensity of CD14+gated population is determined and used as a measure of CD47 binding.

IC50 | Binder
0.11 nM | B1
4.6 nM | B2
0.05 nM | B3
0.3 nM | B6
0.05 nM | B5

biological target: T3, full-length human SIRPαV1 (NP_542970.1) …; test: flow cytometry, CHO-K1 cells
Protocol: (§1) Antibody binding to cells expressing SIRPα is evaluated by flow cytometry. CHO-K1 parental cells (negative control), CHO-K1 cells expressing full-length human SIRPαV1 (NP_542970.1) or CHO-K1 cells expressing full-length human SIRPαV2 (CAA71403.1) are blocked with donkey IgG and incubated on ice with increasing concentrations of antibodies for 60 minutes, washed and stained with AF647-conjugated donkey F(ab′)₂ anti-human IgG secondary reagent. Cells are washed, fixed, and analyzed by flow cytometry. Median fluorescent intensity is determined and used as a measure of antibody binding.

EC50 | Binder
1 nM | B1
12 nM | B2
0.7 nM | B3
2 nM | B4
1 nM | B5

biological target: T5, full-length human SIRPαV2 (CAA71403.1) …; test: flow cytometry, CHO-K1 cells
Protocol: as §1

EC50 | Binder
0.5 nM | B1
14.2 nM | B2
0.5 nM | B3
0.9 nM | B4
0.5 nM | B5

biological target: T5, full-length human SIRPαV2 (CAA71403.1) …; test: flow cytometry, THP-1 cells (endogenous V2)
Protocol: Antibody binding to human monocytic cell lines homozygous for the V1-allele (U-937) or the V2-allele (THP-1) of SIRPα is assessed. U-937 or THP-1 cells are blocked with donkey IgG and incubated on ice with increasing concentrations of antibodies for 60 minutes, washed and stained with AF647-conjugated donkey F(ab′)₂ anti-human IgG secondary reagent. Cells are washed, fixed, and analyzed by flow cytometry. Median fluorescent intensity is determined and used as a measure of antibody binding.

EC50 | Binder
0.2 nM | B1
22.3 nM | B2
0.3 nM | B3
0.4 nM | B4
0.3 nM | B5

biological target: T1, full-length cynomolgus SIRPα …; test: flow cytometry, CHO cells
Protocol: (§2) Antibody binding to cells expressing cynomolgus (cyno) SIRPα was evaluated by flow cytometry. CHO-K1 cells expressing full-length cyno SIRPα; derived from protein sequence accession numbers (A) EGM-02252; (B) XP_015313155; or (C) NP_001271679, are blocked with donkey IgG and incubated on ice with increasing concentrations of antibodies for 60 minutes, washed and stained with AF647-conjugated donkey F(ab′)₂ anti-human IgG secondary reagent. Cells are washed, fixed, and analyzed by flow cytometry. Median fluorescent intensity is determined and used as a measure of antibody binding.

EC50 | Binder
2 nM | B1
4.5 nM | B7
3.7 nM | B8

biological target: T2, full-length cynomolgus SIRPα …; test: flow cytometry, CHO cells
Protocol: as §2

EC50 | Binder
0.9 nM | B1
1.9 nM | B7
1.5 nM | B8
